From patent EP0730609B1

Molecular target: recombinant human IL4 (E. coli, non-glycosylated) (human) (UniProt P05112)
Assay: cell-based or functional assay

recombinant human IL4 (E. coli, non-glycosylated) (human), sequence (P05112 25-153 limits assumed): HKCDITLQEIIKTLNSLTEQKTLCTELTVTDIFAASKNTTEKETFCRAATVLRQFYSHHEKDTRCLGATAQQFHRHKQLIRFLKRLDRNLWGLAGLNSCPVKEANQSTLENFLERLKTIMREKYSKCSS

B cell (inhibition of IL4-stimulated B lymphocyte proliferation), IC50: 79 pM
IgE synthesis (inhibition of IL4-driven IgE secretion), IC50: 406 pM
T cell (inhibition of IL4-stimulated T lymphocyte proliferation), IC50: 40 pM
B1: humanized 3B9 (IgG4) (antibody, from another filing, V domains shown)
VH: QVTLRESGPALVKPTQTLTLTCTFSGFSLSTSGMGVSWIRQPPGKGLEWLAHIYWDDDKRYNPSLKSRLTISKDTSRNQVVLTMTNMDPVDTATYYCARRETVFYWYFDVWGRGTPVTVSS
VL: IVMTQSPDSLAVSLGERATINCKASQSVDYDGDSYMNWYQQKPGQPPKLLIYAASNLESGVPDRFSGSGSGTDFTLTISSLQAEDVAVYYCQQSNEDPPRFGGGTKVEIKR
